Molecular target: T1, CDK7 kinase fused to a C-terminal Strep-tag II sequence (UniProt P50613 1-346)
T1 construct: No cleavage of the tag is described; The theoretical mass of the trimer (113,879 Da with one phosphorylation) would fit whole chains; source: Sf21 cells, baculovirus, purified as the CAK complex (Strep-Tactin XT, eluted with biotin)
Test: cross-linking; purified CAK complex (co-expressed, co-purified) at 0.7 mg/mL in 20 mM Hepes pH 8, 150 mM KCl, 1 mM EDTA, 1 mM DTT, 50 mM biotin; DSSO at 200 molar excess, 45 min, RT; three replicates; 4-CV FAIMS-GPF nLC-MS/MS; XLs kept if in at least 2 of 3 replicates
Conditions: both partners purified

T1 sequence (P50613 whole entry, the tested form may be a part): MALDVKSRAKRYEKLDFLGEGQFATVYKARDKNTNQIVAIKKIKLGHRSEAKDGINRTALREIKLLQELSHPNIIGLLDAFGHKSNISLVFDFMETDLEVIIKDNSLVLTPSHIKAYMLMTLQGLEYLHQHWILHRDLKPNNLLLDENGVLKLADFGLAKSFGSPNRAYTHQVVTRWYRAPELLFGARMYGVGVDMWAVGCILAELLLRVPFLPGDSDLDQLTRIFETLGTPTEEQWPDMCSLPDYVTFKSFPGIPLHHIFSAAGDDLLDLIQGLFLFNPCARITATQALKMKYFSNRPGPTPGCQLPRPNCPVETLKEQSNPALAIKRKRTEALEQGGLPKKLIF

B1: MAT1 (natural protein, UniProt P51948 1-309, looked up)
chain: MDDQGCPRCKTTKYRNPSLKLMVNVCGHTLCESCVDLLFVRGAGNCPECGTPLRKSNFRVQLFEDPTVDKEVEIRKKVLKIYNKREEDFPSLREYNDFLEEVEEIVFNLTNNVDLDNTKKKMEIYQKENKDVIQKNKLKLTREQEELEEALEVERQENEQRRLFIQKEEQLQQILKRKNKQAFLDELESSDLPVALLLAQHKDRSTQLEMQLEKPKPVKPVTFSTGIKMGQHISLAPIHKLEEALYEYQPLQIETYGPHVPELEMLGRLGYLNHVRAASPQDLAGGYTSSLACHRALQDAFSGLFWQPS
notes: MAT1, subunit of the CAK heterotrimer; source: Sf21 cells, baculovirus, purified as the CAK complex (Strep-Tactin XT, eluted with biotin)
**Q.** Does B1 bind?
**A.** Result: binds

From paper PMC13507205, “FAIMS-GPF XL-MS: crosslinking-mass spectrometry based on gas-phase fractionation” (Nature Communications, 2026)
